Assays:
C57BL/6 mice [1] = assay: LPS acute lung injury mouse model: BAL protein (Bradford assay); assay type: in vivo; details: F-652 4 μg i.v., day 4
Method: (§1) After approval from the Tulane University, Institutional Animal Care and Use Committee (protocol ID 607), equal numbers of male and female, 6-8 week old C57BL/6 mice (Charles River Laboratories, Cambridge, Mass.) were given acute lung injury (ALI) via intra-tracheally administered LPS. After obtaining appropriate depth of anesthesia using isoflurane, the high-dose LPS group (HDG) received 100 μg of LPS administered intra-tracheally. Approximately 30 minutes after LPS administration, 4 μg of F-652 was administered via tail vein injection (n=11), then compared to animals receiving sham injection (n=8) with phosphate-buffered saline (PBS). In the low-dose LPS group (LDG), 33.3 μg of LPS was administered intra-tracheally. F-652 was again administered at 30 minutes (n=9) and compared to sham injected animals (n=9). […]
(§2) The BAL fluid was then centrifuged at 500×gravity for 5 minutes. […] To quantify protein in the BAL supernatant, a Bradford protein assay (Bio-Rad Laboratories) was performed. Protein was quantified by measuring absorbance at 595 nm on a BMG Labtech FLUOstar Optima plate reader. […] Human IL-22 was measured using an IL-22 Human ELISA kit (ThermoFisher Scientific). Mouse IL-22 was measured using an IL-22 Mouse/Rat Quantikine ELISA kit (R&D Systems).

C57BL/6 mice [2] = assay: LPS acute lung injury mouse model: histopathology score; assay type: in vivo
Method: as §1
Immediately after sacrifice, lung tissue from the right lower lobe was fixed in 4% paraformaldehyde and cut into sections. […] Lung injury induced by LPS was assessed by a blinded reviewer with a numerical scoring scale ranging from 0-4. Regions of lung injury in sections were scored for the extent of intimal thickening, alveolitis, and the presence of proteinaceous material in the alveolar space. […]

[3] = test system: H1N1 influenza (A/PR8 strain); assay type: in vivo, C57BL/6 mice
mouse IL-22 = assay: LPS acute lung injury mouse model: endogenous mouse IL-22 ELISA in BAL; assay type: in vivo, mice; details: low-dose LPS; F-652 4 μg tail vein; day 4; sham non-detectable
Method: as §1, §2

HUVECs = assay: Real-time quantitative RT-PCR of mRNA levels in HUVECs; assay type: cell-based, human
Method: RNA was isolated with Trizol (Invitrogen) and used as a template for reverse transcriptase (reverse transcriptase mix sold under the trademark ISCRIPT® RT supermix, Bio-Rad). mRNAs were quantified by real-time PCR with the cyanine nucleic acid dye IQ SYBR® Green Supermix (Bio-Rad), and normalized against PPIA mRNA as the internal control gene. Relative changes in expression were calculated using the […] as established in prior studies. (Livak K J, Schmittgen T D. “Analysis of relative gene expression data using real-time quantitative PCR and the 2^−ΔΔCT method.” Methods. 2001; 25(4):402-8).

C57BL/6 mice [4] = assay: LPS acute lung injury mouse model: lung RNA-seq pathway analysis; assay type: in vivo; details: high-dose LPS injury; lung tissue
Method: as §1, with “(PBS).” for “(PBS). In the low-dose LPS group (LDG), 33.3 μg of LPS was administered intra-tracheally. F-652 was again administered at 30 minutes (n=9) and compared to sham injected animals (n=9).”
Lung tissue was homogenized in Trizol buffer (Life Technologies) and total RNA extraction was performed according to Trizol manufacturer's instructions. […] RNA quantity and quality were assessed using NanoDrop and Agilent RNA ScreenTape with Agilent 4150 TapeStation system. SMART-Seq Stranded total RNA sample prep kit (Takara Bio USA, Inc.) was used for library preparation as specified in the user manual, followed by Agilent DNA 1000 kit validation with Agilent 4150 TapeStation system and quantification by Qubit 2.0 fluorometer. […] Cluster generation and 1×75 bp single read single-indexed sequencing was performed by High-Output kit v2.5 (75 cycles) on Illumina NextSeq 550. Raw reads were processed and mapped. […]

[5] = test system: H1N1 influenza (A/PR8 strain); assay type: in vivo, C57BL/6 mice; details: aged hosts; treated for 3 weeks
[6] = LPS and F-652 co-exposed, LPS only 1.49
[7] = LPS and F-652 compared to control

B1: F-652: recombinant IL-22 dimer consisting of two monomeric subunits each comprising a sequence shown in SEQ ID NO: 24 (protein)
chain 1: APISSHCRLDKSNFQQPYITNRTFMLAKEASLADNNTDVRLIGEKLFHGVSMSERCYLMKQVLNFTLEEVLFPQSDRFQPYMQEVVPFLARLSNRLSTCHIEGDDLHIQRNVQKLKDTVKKLGESGEIKAIGELDLLFMSLRNACIGSGGGSGGGGSGGGGSVECPPCPAPPVAGPSVFLFPPKPKDTLMISRTPEVTCVVVDVSHEDPEVQFNWYVDGVEVHNAKTKPREEQFNSTFRVVSVLTVVHQDWLNGKEYKCKVSNKGLPASIEKTISKTKGQPREPQVYTLPPSREEMTKNQVSLTCLVKGFYPSDIAVEWESNGQPENNYKTTPPMLDSDGSFFLYSKLTVDKSRWQQGNVFSCSVMHEALHNHYTQKSLSLSPGK
chain 2: B1 chain 1
modifications: homodimer
- BAL protein (C57BL/6 mice [1]; high-dose LPS injury, sham 0.38): 0.55 µg/µL
- BAL protein (C57BL/6 mice [1]; low-dose LPS injury, sham 0.25): 0.15 µg/µL
- histopathology injury score (scale 0-4) (C57BL/6 mice [2]; high-dose LPS injury, sham 2.0): 1.0
- histopathology scores, F-652 treated vs sham (C57BL/6 mice [2]; low dose LPS injury): did not show any difference
- influenza specific CD8+ T cells (Total CD8+) compared to PBS control ([3]; aged mice, 3-week treatment): significantly decreased
- lung infiltrating neutrophils and inflammatory monocytes compared to 3-week F-652 treatment ([3]; aged mice, 6-week F-652 treatment): even more decrease
- lung infiltrating neutrophils and inflammatory monocytes compared to PBS control ([3]; aged mice, F-652 200 μg/kg weekly for 3 weeks, Days 62-65 post-infection): decreased significantly
- CD8+ T cells expressing CD69+ or CD69+/CD103+ compared to PBS control ([3]; both young and aged hosts): decreased significantly
- total number of CD8+ T cells ([3]; young mice, 3-week treatment): no significant difference
- lung infiltrating neutrophils or inflammatory monocytes, PBS vs F-652 ([3]; young mice, treated for 3 weeks or 6 weeks): no significant difference
- endogenous mouse IL-22 level in BAL (mouse IL-22): 1.22 pg/mL
- ADAM17 levels (HUVECs; F-652 alone, control 1.09): 1.14 RE
- MMP-7 levels (HUVECs; F-652 alone, control 1.11): 1.23 RE
- levels of any matrix metalloproteinase (HUVECs; F-652 only): did not change
- VE-CAD RNA levels (HUVECs; F-652 only exposed, control 1.06): 1.01 RE
- ADAM17 levels (HUVECs; LPS and F-652, control 1.09, LPS 2.42): 1.22 RE
- MMP-7 levels (HUVECs; LPS and F-652, control 1.11, LPS 2.99): 1.53 RE
- MYD88 RNA expression (HUVECs; LPS and F-652 co-exposed, LPS only 1.48): 0.72 RE
- Exostosin-1 level (HUVECs; [6]): 0.82 RE
- TIMP2 level (HUVECs; [6]): 0.82 RE
- IRAK4 mRNA expression (HUVECs; LPS and F-652 co-exposed, LPS only 1.51): 0.86 RE
- Exostosin-2 level (HUVECs; LPS and F-652 co-exposed, LPS only 1.88): 0.99 RE
- TIRAP mRNA expression (HUVECs; LPS and F-652 co-exposed, LPS only 1.92): 0.82 RE
- VE-CAD RNA levels (HUVECs; LPS and F-652 co-exposed, control 1.06, LPS only 1.96): 0.81 RE
- expression of MMP-9 (HUVECs; [7]): did not change
- expression of Matrix Metalloproteinase-1 (MMP-1) (HUVECs; [7]): did not significantly change
- relative expression of MMP-2 (HUVECs; [7]): lower relative expression
- relative expression of MMP-14 (HUVECs; [7]): lower relative expression
- MMP-9 relative expression (HUVECs; LPS and F-652 exposed compared to LPS exposed (2.99)): 1.53 RE
- TLR4 mRNA (HUVECs; all comparisons): not significantly different
- Levels of TRAM, TRAF6, IRAK1, and TRIF (HUVECs; all group comparisons): not significantly different
- Tissue inhibitor of metalloproteinase-1 (TIMP1) (HUVECs; among various HUVEC exposure groups): not different
- Macrophage Inflammatory Protein-1β (CCL4) expression (RNA-seq) (C57BL/6 mice [4]): decrease
- Tnc, COL1a1, Col6a3 and Col1a2 expression (RNA-seq) (C57BL/6 mice [4]): increased
- lung histology (H&E, Masson's Trichrome, Sirius Red, PAS) [5]: ameliorates much of the H1N1-induced pathology

— patent US20230079150A1, “METHODS FOR PREVENTION OR TREATMENT OF VIRUS-INDUCED ORGAN INJURY OR FAILURE WITH IL-22 DIMER” (priority 2020, published 2023)
